± gives the standard deviation of the averaged measurements.
What follows are sequences tested on Saccharomyces cerevisiae (assay: protein stability index of tFT-peptide fusion (C-terminal peptide) (PSI (0-1 scale)); higher = more stable (slower turnover)). Details: genetic background: wild type; temperature: 30 C.
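Note: PSI is a weighted mean of sequencing reads over stability bins, variants kept only with over 10 reads, mCherry proximal and sfGFP distal, peptide attached via GGGS linker.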

| Sequence | protein stability index |
| --- | --- |
| SPSSPPPSPPPA | 0.727 ± 0.016 |
| SPSTSIPPLPAS | 0.73 ± 0.016 |
| SPTARRLSGCIS | 0.658 ± 0.086 |
| SPTIRPDESPVQ | 0.6893 ± 0.0067 |
| SPTPHPPPSPPL | 0.728 ± 0.023 |
| SPTPSLPFPALF | 0.737 ± 0.097 |
| SPTRPPSPIISR | 0.7181 ± 0.002 |
| SPVLSPHSRSSF | 0.633 ± 0.087 |
| SPVLSPLSLPPH | 0.6982 ± 0.0042 |
| SPVPIPPSPSRP | 0.687 ± 0.019 |
| SPVRPPLSSLYS | 0.705 ± 0.04 |
| SPVSLPIPYTFL | 0.6891 ± 0.0054 |
| SQAALLIPLFSL | 0.681 ± 0.03 |
| SQFWGCALFIEH | 0.652 ± 0.018 |
| SQGLALFLRPGY | 0.628 ± 0.057 |
| SQSFFDGVLVRV | 0.673 ± 0.059 |
| SRAAGILCVVQI | 0.615 ± 0.084 |
| SRAPPTSLVWGF | 0.678 ± 0.097 |
| SRDIKTDCLRRV | 0.688 ± 0.078 |
| SREKRKEEQTQK | 0.717 ± 0.018 |
| SRFGSVSCRPSI | 0.713 ± 0.079 |
| SRFPPDTFFSFL | 0.802 ± 0.14 |
| SRGARRRGGAGR | 0.656 ± 0.056 |
| SRGPSLYLCGVR | 0.63 ± 0.00074 |
| SRIALLSLGAIL | 0.707 ± 0.028 |
| SRIPARCDGKCI | 0.6722 ± 0.0037 |

| Sequence | protein stability index |
| --- | --- |
| SRKEKNEKRSWG | 0.674 ± 0.041 |
| SRLGLLTDGVYA | 0.583 ± 0.025 |
| SRLLLPPRGILP | 0.76 ± 0.15 |
| SRLPSYVSACSF | 0.671 ± 0.011 |
| SRLRPHNSSTPV | 0.716 ± 0.053 |
| SRNLRRLEIRRE | 0.743 ± 0.027 |
| SRPFAILLCAEK | 0.62 ± 0.015 |
| SRPLANYARCSS | 0.639 ± 0.036 |
| SRPSPAMFLFSP | 0.737 ± 0.1 |
| SRRCKAFLCRGY | 0.6663 ± 0.0053 |
| SRRSNMRNMRTT | 0.657 ± 0.081 |
| SRRYLPHRPTSL | 0.732 ± 0.071 |
| SRTAFNRGTTRD | 0.681 ± 0.044 |
| SRVRSPPWTRKF | 0.739 ± 0.1 |
| SRWTFSFYRNLD | 0.683 ± 0.053 |
| SSAALSPPPPRP | 0.724 ± 0.027 |
| SSCTRLSILVWF | 0.52 ± 0.0056 |
| SSDFVFGHRFCR | 0.693 ± 0.015 |
| SSEKKKEDGGLG | 0.687 ± 0.069 |
| SSFPAGGWLFFL | 0.682 ± 0.029 |
| SSFVFGLCGGVA | 0.694 ± 0.03 |
| SSGPPRLPHSRR | 0.646 ± 0.046 |
| SSGTLSPLSPVP | 0.655 ± 0.027 |
| SSHSPFSPVLLP | 0.71 ± 0.017 |
| SSHVPPDLPSLH | 0.692 ± 0.031 |
| SSHYSSPAALPY | 0.696 ± 0.019 |

| Sequence | protein stability index |
| --- | --- |
| SSILQFSCFHGN | 0.707 ± 0.036 |
| SSLEGMRSGLCR | 0.69 ± 0.045 |
| SSLFVISIPFRS | 0.639 ± 0.015 |
| SSLLPLLVPLAP | 0.723 ± 0.076 |
| SSLPVPGPFVND | 0.69 ± 0.066 |
| SSPALPPQPPSH | 0.723 ± 0.0054 |
| SSPLLSISPHFP | 0.666 ± 0.042 |
| SSPLPPPSPLPA | 0.678 ± 0.031 |
| SSPLSSRFLLCL | 0.579 ± 0.027 |
| SSPPHLPRPSSP | 0.748 ± 0.024 |
| SSPPPCPLPTYP | 0.624 ± 0.068 |
| SSPPPLPPSPPP | 0.673 ± 0.019 |
| SSPRRRLHSLSL | 0.782 ± 0.04 |
| SSPSPCSRPLLL | 0.7112 ± 0.0011 |
| SSPSPPSLLPSL | 0.70987 ± 0.00056 |
| SSPSPPSSSSFP | 0.639 ± 0.028 |
| SSRPTLLSPPPA | 0.706 ± 0.012 |
| SSRRNNIPKRYK | 0.713 ± 0.031 |
| SSSLCSSSLGGS | 0.605 ± 0.069 |
| SSSPTFLLSPFP | 0.721 ± 0.012 |
| SSTPGWVSCDKI | 0.735 ± 0.029 |
| SSTPYRHLLTPH | 0.723 ± 0.013 |
| SSVNYPSFPPLA | 0.706 ± 0.03 |
| SSVQVSMGTAAG | 0.681 ± 0.036 |
| STAFRDSAMRDP | 0.664 ± 0.051 |
| STCPPIFFVSSW | 0.7248 ± 0.0063 |

| Sequence | protein stability index |
| --- | --- |
| STLEKTFRVAKR | 0.694 ± 0.011 |
| STLIARAQRGQA | 0.639 ± 0.073 |
| STLSSPSRRLLP | 0.677 ± 0.03 |
| STPPPPPTFQLS | 0.691 ± 0.047 |
| STPRTPNFPATA | 0.706 ± 0.019 |
| STQIRQILERKC | 0.653 ± 0.051 |
| STRPDLLLLAES | 0.6 ± 0.055 |
| STSPFPAPRRAL | 0.775 ± 0.052 |
| STTILIKKKNDK | 0.684 ± 0.041 |
| STTPKFNILASD | 0.646 ± 0.022 |
| STVKVVIIHFKI | 0.48 ± 0.036 |
| STVPDRPRLPVY | 0.674 ± 0.022 |
| SVCVLGPLDGSC | 0.701 ± 0.022 |
| SVEKYDGGKGVV | 0.69 ± 0.0095 |
| SVESAVRALQPT | 0.731 ± 0.042 |
| SVFTLLGSMCLE | 0.664 ± 0.011 |
| SVGGSRSGRGGQ | 0.688 ± 0.011 |
| SVGLLLSPFPPL | 0.6882 ± 0.0063 |
| SVKGRVPLYVSE | 0.658 ± 0.042 |
| SVLVQLLATTKS | 0.675 ± 0.028 |
| SVPLTLLPPLFP | 0.694 ± 0.016 |
| SVPLYRLSSWRN | 0.695 ± 0.021 |
| SVPPPPLARALL | 0.759 ± 0.057 |
| SVPTPPLVPSIS | 0.665 ± 0.07 |
| SVSLPPSLPFLL | 0.764 ± 0.03 |
| SVVGGVVVELEG | 0.65 ± 0.0096 |

| Sequence | protein stability index |
| --- | --- |
| SVVVWRWVCGWS | 0.549 ± 0.014 |
| SVWDGSRVKCST | 0.704 ± 0.04 |
| SVYPSSPTRPPP | 0.683 ± 0.048 |
| SVYVGAQAFCTC | 0.612 ± 0.025 |
| SWCDKGSCLVDE | 0.695 ± 0.07 |
| SWIQLDAWETRS | 0.696 ± 0.041 |
| SWKEAIVAISGS | 0.612 ± 0.058 |
| SWRKGAHRPVEV | 0.66 ± 0.036 |
| SWRRAASSGGGE | 0.618 ± 0.074 |
| SWSVSVNMVGQS | 0.6829 ± 0.0042 |
| SWVFSVDNGLVV | 0.6133 ± 0.0012 |
| SWYQPSLREYAQ | 0.74268 ± 0.00062 |
| SWYSRARMAGEG | 0.652 ± 0.0093 |
| SYGTIGYLATSF | 0.687 ± 0.075 |
| SYLRGPIVTGFG | 0.712 ± 0.077 |
| SYLVLLHDRGMK | 0.665 ± 0.011 |
| SYMCRCALDCFL | 0.643 ± 0.035 |
| SYPSGFPSPSHP | 0.834 ± 0.062 |
| SYRHHPTVPSTY | 0.705 ± 0.057 |
| SYRPPYTQPTDL | 0.658 ± 0.064 |
| TAPGYLGFSPFE | 0.713 ± 0.034 |
| TARIIAHPQTRI | 0.661 ± 0.032 |
| TARQNRARPGHP | 0.678 ± 0.022 |
| TASPAHTPTKTR | 0.608 ± 0.051 |
| TCAPTRISRTPG | 0.6883 ± 0.00073 |
| TCFPDLLVLPAR | 0.7008 ± 0.0022 |

| Sequence | protein stability index |
| --- | --- |
| TCFWFTCSDPFF | 0.773 ± 0.096 |
| TCLWVCAWGFGG | 0.716 ± 0.011 |
| TCVLPDLNTRWS | 0.685 ± 0.02 |
| TDCAPRGGRWKR | 0.656 ± 0.14 |
| TDFPRDFPPVDL | 0.7526 ± 0.0029 |
| TEVWSGFARWGG | 0.675 ± 0.046 |
| TFFFLGSVFSLA | 0.638 ± 0.043 |
| TFFLPPSCFYPP | 0.616 ± 0.051 |
| TFNRIFGNALPG | 0.688 ± 0.044 |
| TFPATSLPSFSL | 0.6861 ± 0.0031 |
| TFPKKKGLLNIS | 0.636 ± 0.028 |
| TFRKMEKKKDGG | 0.652 ± 0.018 |
| TGAPSKQYDRFL | 0.747 ± 0.045 |
| TGEFILLFSWFV | 0.584 ± 0.0024 |
| TGEIREEWRKNI | 0.54 ± 0.03 |
| TGHFSTTPPRPH | 0.714 ± 0.077 |
| TGKTHSGNKYER | 0.684 ± 0.059 |
| TGSLLWGCFALL | 0.623 ± 0.054 |
| TGVSTRVTHTAP | 0.707 ± 0.014 |
| TGYDERSRFIEI | 0.68 ± 0.1 |
| THGMFVFSPPWF | 0.785 ± 0.1 |
| THHTPKILNTKR | 0.708 ± 0.063 |
| THPPLTSRSSPP | 0.654 ± 0.044 |
| THPPSFHPSRAP | 0.693 ± 0.092 |
| THSLCIKPRTVV | 0.517 ± 0.0056 |
| THSTLRRFSGYS | 0.7005 ± 0.001 |

| Sequence | protein stability index |
| --- | --- |
| TIIEHYMMINEK | 0.692 ± 0.064 |
| TILPWCLFLVAD | 0.6 ± 0.0098 |
| TISRIQTNINKK | 0.742 ± 0.18 |
| TKEFKKTNTTGY | 0.7406 ± 0.0039 |
| TKFKPKILEKCT | 0.686 ± 0.021 |
| TKIKETTKKKQL | 0.522 ± 0.059 |
| TKKKKKEKGDST | 0.702 ± 0.1 |
| TKQKKIEDEEII | 0.6314 ± 0.0017 |
| TKSQGGLTWASC | 0.626 ± 0.011 |
| TLAKSSQNLMCV | 0.744 ± 0.085 |
| TLAPPLPPPPLV | 0.731 ± 0.013 |
| TLAPVRAFVEFR | 0.656 ± 0.022 |
| TLCLPPPVAWQH | 0.6544 ± 0.0047 |
| TLDNEKKKKRNT | 0.674 ± 0.022 |
| TLDTCVPGANTF | 0.7127 ± 0.001 |
| TLGGEITYKVKT | 0.684 ± 0.034 |
| TLRRYSFTKKNL | 0.737 ± 0.069 |
| TLRVQNKRKSEE | 0.663 ± 0.028 |
| TLSLILPQLPPL | 0.643 ± 0.071 |
| TLSPGYTFPLSL | 0.743 ± 0.023 |
| TLTDCRKKCGRV | 0.715 ± 0.097 |
| TLTPPPSTSLPP | 0.645 ± 0.067 |
| TLTSPFGSPTWD | 0.638 ± 0.31 |
| TLYHWELEPRNP | 0.664 ± 0.013 |
| TLYLCALPALSR | 0.615 ± 0.0075 |
| TNARDPPGPTPH | 0.586 ± 0.06 |

| Sequence | protein stability index |
| --- | --- |
| TNFGALNFDYAC | 0.772 ± 0.028 |
| TNFSRCFLFRSW | 0.629 ± 0.025 |
| TNILMHGHKRSC | 0.676 ± 0.13 |
| TNRIRGTARKVK | 0.67 ± 0.055 |
| TNSKLTKERTEI | 0.699 ± 0.049 |
| TNSVGCRIGGKQ | 0.646 ± 0.02 |
| TNTRKIINMEKQ | 0.717 ± 0.077 |
| TNVPVLTLMVYL | 0.591 ± 0.089 |
| TPASCHQFGYQH | 0.695 ± 0.026 |
| TPASPSPPPRPP | 0.625 ± 0.019 |
| TPGDAVICSFYI | 0.642 ± 0.015 |
| TPGGDPLAPRQS | 0.641 ± 0.061 |
| TPKETGNNNMPN | 0.677 ± 0.09 |
| TPMGFSRFLLSL | 0.553 ± 0.03 |
| TPPFPSPLPPPS | 0.753 ± 0.013 |
| TPPLCAPPLPPP | 0.7022 ± 0.0054 |
| TPPPPAPPHPPP | 0.62 ± 0.036 |
| TPPPPPPPLRAT | 0.638 ± 0.038 |
| TPPRVYPLLRTS | 0.682 ± 0.016 |
| TPPVHLPPSSFS | 0.744 ± 0.0023 |

— the supplement of paper PMC10724198
